# Results reported in US7056679 (ANTYRA, dated 2006).
# T1: DGI-2 polypeptide (UniProt Q15004 1-111, limits assumed)
# T1 construct: Soluble recombinant protein coated at 500 ng/well; vector tag of pIVEX2.3-MCS not described for this construct; also called KIAA0101
# T1 sequence (looked up): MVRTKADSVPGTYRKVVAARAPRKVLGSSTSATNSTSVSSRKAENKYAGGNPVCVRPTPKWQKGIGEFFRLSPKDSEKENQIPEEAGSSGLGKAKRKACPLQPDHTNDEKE
# Molecular target: T2, antibody raised against ETAG
# T2 construct: Coated at 500 ng/well; also called E-tag antibody
# Experiment: phage ELISA
# Procedure: (§1) For analysis of individual target binders, colonies were picked and phage prepared as described above using helper phage, M13KO7. Ninety-six-well microtiter plates were coated with 500 ng/well of specific target protein, 500 ng/well lactate dehydrogenase (LDH) irrelevant or non-specific target, 500 ng/well of positive control antibody raised against ETAG, and negative control of non-fat milk powder-PBS 2% at 4° C. overnight. Plates were then blocked with 350 microliters/well PBS containing 2% non-fat milk for 1 hr at room temperature. One hundred microliters per well of phage from isolated clones were added and plates were incubated at room temperature for 2 hr after centrifuging samples for 20 minutes at 3500 rpm at 4° C. The phage solution was then removed, and the wells were washed three times with PBS at room temperature. Antibody raised against M13 conjugated to horseradish peroxidase (Pharmacia) was diluted 1:3000 in PBS-Tween and added to each well (100 µl/well). Incubation was for 1 hr at room temperature, followed by washing with PBS-(0.5%) Tween 3 times as described. Color was developed by addition of ABTS solution (100 µl/well; Boehringer, Indianapolis, Ind.). Plates were analyzed at 405 nm. A clone was considered "positive" if the $A405$ of the well was $\geq$2-fold over background.
row,Binder,ETAG (OD)
1,RDTTSQWSWISRGWEFPGWRAAAGAPVPYPDPLEPRP [DGI-2-20R-3-C2],11.9
2,SLECWAMPGMVVRLVGCDGPAAAGAPVPYPDPLEPRP [DGI-2-20R-4-H112],12.3
3,RRILPWSFPGCGRMCAAAGAPVPYPDPLEPRP [DGJ-2-20R-3-A10],16.4
4,RRGVCEIFTGWCVGQTNERPAAAGAPVPYPDPLEPRP [DGI-2-20R-4-H626],13.5
5,FRMWVQSCFWGQPGTGCGEGAAAGAPVPYPDPLEPRP [DGI-2-20R-3-D2],14.3
6,GRWDGWEVCGIWGADDCASGAAAGAPVPYPDPLEPRP [DGI-2-20R-4-H1],14
7,SWACGLLWPGECGSQVARRGAAAGAPVPYPDPLEPRP [DGI-2-20R-3-D127],15.4
8,WAASCFWGHVALGCGRNGQGAAAGAPVPYPDPLEPRP [DGI-2-20R-3-A11],14.7
9,VWAAWVEGSLLSPRQEPVRDAAAGAPVPYPDPLEPRP [DGI-2-20R-4-G4],13.6
10,RDTMCGSVSWGIPGCEYSGMAAAGAPVPYPDPLEPRP [DGI-2-20R-4-G122],13.9
11,DQRVVGSGWFERLRNWYDRAAAAGAPVPYPDPLEPRP [DGI-2-20R-4-G99],14.1
12,RSIRLQLIDEACQFFDGLCTAAAGAPVPYPDPLEPRP [DGI-2-20R-3-A8],15.3
13,TIDVARRFGYGWWDLWLDGDAAAGAPVPYPDPLEPRP [DGI-2-20R-3-C3],20.2
14,GAIRLSGAAWTASRTGGRASAAAGAPVPYPDPLEPRP [DGI-2-20F-PP-E7],21.5
15,EGNWFCAVFRGFCVGDRGPEAAAGAPVPYPDPLEPRP [DGI-2-20R-3-A1],11.1
16,WGCVFRQWASGSGAGCARRHAAAGAPVPYPDPLEPRP [DGI-2-20R-3-D9],19.7
17,SRELGKWGRLWQDWSSGNFSAAAGAPVPYPDPLEPRP [DGI-2-20R-3-C11],18.9
18,QMSRVAFSPGESWRRWVEGVAAAGAPVPYPDPLEPRP [DGI-2-20R-3-A2],14.2

# Molecular target: T1, DGI-2 polypeptide
# Experiment: phage ELISA
# Procedure: as §1
Binder,DGI-2 (OD),DGI-2/LDH [ratio]
RDTTSQWSWISRGWEFPGWRAAAGAPVPYPDPLEPRP [DGI-2-20R-3-C2],6.2,5.8
SLECWAMPGMVVRLVGCDGPAAAGAPVPYPDPLEPRP [DGI-2-20R-4-H112],6.6,6
RRILPWSFPGCGRMCAAAGAPVPYPDPLEPRP [DGJ-2-20R-3-A10],6.2,5.9
RRGVCEIFTGWCVGQTNERPAAAGAPVPYPDPLEPRP [DGI-2-20R-4-H626],9.6,8.8
FRMWVQSCFWGQPGTGCGEGAAAGAPVPYPDPLEPRP [DGI-2-20R-3-D2],7.9,7.5
GRWDGWEVCGIWGADDCASGAAAGAPVPYPDPLEPRP [DGI-2-20R-4-H1],9.3,7.8
SWACGLLWPGECGSQVARRGAAAGAPVPYPDPLEPRP [DGI-2-20R-3-D127],6.7,6.4
WAASCFWGHVALGCGRNGQGAAAGAPVPYPDPLEPRP [DGI-2-20R-3-A11],6.2,5.7
VWAAWVEGSLLSPRQEPVRDAAAGAPVPYPDPLEPRP [DGI-2-20R-4-G4],10.2,9.8
RDTMCGSVSWGIPGCEYSGMAAAGAPVPYPDPLEPRP [DGI-2-20R-4-G122],7.6,7.1
DQRVVGSGWFERLRNWYDRAAAAGAPVPYPDPLEPRP [DGI-2-20R-4-G99],7.5,7.2
RSIRLQLIDEACQFFDGLCTAAAGAPVPYPDPLEPRP [DGI-2-20R-3-A8],6.9,6.4
TIDVARRFGYGWWDLWLDGDAAAGAPVPYPDPLEPRP [DGI-2-20R-3-C3],7.9,7
GAIRLSGAAWTASRTGGRASAAAGAPVPYPDPLEPRP [DGI-2-20F-PP-E7],1.6,1.8
EGNWFCAVFRGFCVGDRGPEAAAGAPVPYPDPLEPRP [DGI-2-20R-3-A1],7.1,6.3
WGCVFRQWASGSGAGCARRHAAAGAPVPYPDPLEPRP [DGI-2-20R-3-D9],6.7,6.4
SRELGKWGRLWQDWSSGNFSAAAGAPVPYPDPLEPRP [DGI-2-20R-3-C11],8.6,8.3
QMSRVAFSPGESWRRWVEGVAAAGAPVPYPDPLEPRP [DGI-2-20R-3-A2],7.5,7.5

# Molecular target: T3, lactate dehydrogenase (LDH)
# T3 construct: Coated at 500 ng/well as non-specific target; also called LDH polypeptide
# Experiment: phage ELISA
# Procedure: as §1
row,Binder,LDH (OD)
1,RDTTSQWSWISRGWEFPGWRAAAGAPVPYPDPLEPRP [DGI-2-20R-3-C2],1.1
2,SLECWAMPGMVVRLVGCDGPAAAGAPVPYPDPLEPRP [DGI-2-20R-4-H112],1.1
3,RRILPWSFPGCGRMCAAAGAPVPYPDPLEPRP [DGJ-2-20R-3-A10],1.1
4,RRGVCEIFTGWCVGQTNERPAAAGAPVPYPDPLEPRP [DGI-2-20R-4-H626],1.1
5,FRMWVQSCFWGQPGTGCGEGAAAGAPVPYPDPLEPRP [DGI-2-20R-3-D2],1.1
6,GRWDGWEVCGIWGADDCASGAAAGAPVPYPDPLEPRP [DGI-2-20R-4-H1],1.2
7,SWACGLLWPGECGSQVARRGAAAGAPVPYPDPLEPRP [DGI-2-20R-3-D127],1
8,WAASCFWGHVALGCGRNGQGAAAGAPVPYPDPLEPRP [DGI-2-20R-3-A11],1.1
9,VWAAWVEGSLLSPRQEPVRDAAAGAPVPYPDPLEPRP [DGI-2-20R-4-G4],1
10,RDTMCGSVSWGIPGCEYSGMAAAGAPVPYPDPLEPRP [DGI-2-20R-4-G122],1.1
11,DQRVVGSGWFERLRNWYDRAAAAGAPVPYPDPLEPRP [DGI-2-20R-4-G99],1
12,RSIRLQLIDEACQFFDGLCTAAAGAPVPYPDPLEPRP [DGI-2-20R-3-A8],1.1
13,TIDVARRFGYGWWDLWLDGDAAAGAPVPYPDPLEPRP [DGI-2-20R-3-C3],1.1
14,GAIRLSGAAWTASRTGGRASAAAGAPVPYPDPLEPRP [DGI-2-20F-PP-E7],0.9
15,EGNWFCAVFRGFCVGDRGPEAAAGAPVPYPDPLEPRP [DGI-2-20R-3-A1],1.1
16,WGCVFRQWASGSGAGCARRHAAAGAPVPYPDPLEPRP [DGI-2-20R-3-D9],1
17,SRELGKWGRLWQDWSSGNFSAAAGAPVPYPDPLEPRP [DGI-2-20R-3-C11],1
18,QMSRVAFSPGESWRRWVEGVAAAGAPVPYPDPLEPRP [DGI-2-20R-3-A2],1
